# From the DeepSol protein solubility set
# Experiment: soluble on expression in E. coli; label from the status in PepcDB or PDB records
row,Sequence,soluble on expression in E. coli
1,GPFCGRARVHTDFTPSPYDTDSLKIKKGDIIDIICKTPMGMWTGMLNNKVGNFKFIYVDVISE,soluble
2,MNQRKLDHEVKTLQVQAAQFAKQTGQWIGMVENFNQALKEIGDVENWARSIELDMRTIATALEYVYKGQLQSAPS,soluble
3,MGSDKIHHHHHHMTFLFFQPSSNIIKPYALMDLDDTLFQTQRKIDAWELPTTEPENLVCATVNKQGEPLSFMSQRQAAFFNWLLASTELIAVTARDRLEIKRVKLLFNSWQVLTHGAVILTSDGEPLSTWQQHMYNALIPLQDKINQLTEWVNSYSKESDRTHNDLKLTPHTDTFIDSELTIYLAIKHTQKDHQALAELATQLPTLIPDFDAHFYVHVNANNLAILPHAVHKRHAVQFLLEQHLDHQRPSFGFGDSLADLPFLQLLDWYGMPNHGQLHTQQ,not soluble
4,GMAGKVEARKAALREKLIDLAEAQIEAEGLASLRARELARQADCAVGAIYTHFQDLNALTLEVNGRTFARLGAAVGAVVADGQDDHPNERLIAMSHAYLAFAREHPKLWRALFDVEMRSDGPVPQWYGHAMAQLFSYITTPLAKIFPESDDAELDLMTRTLFSSVHGIVLLGLENRISGVPGEQLKTMIRLLLEQVGR,soluble
5,MLFLDKNLELNDTELDIYNYIVANLEKVVYMRIRDLATEAHVSTTTILRFCRKFGCNGFSEFRVKLQLYLEEQKLAQIDMADETTYIDFLKRTAQPEFKAQIQNAVEILRDRELVLFAGVGSSGVIAEYGAIYFSSLFTLALHIEDPLNHPFYHLSSKLSDKICMIAISVEGENEDIIRYIHQLKAQNCKVISITNSAKSTIARLSDANIAYYINKEMYQEANITSQLPALYTIENIAREIRTQIDKEKM,not soluble
6,GMARKRLIIEMGMGIDQHGQEPTIAASRAVRNAIAHNALPGVWEVAGLSHPNEMIIEVQVAVPYPEQVREEEVLAVLPFGRKTLTVESGGMIVQGRAIPELNDKNDEMLIAIAAVTVLIENE,soluble
7,MNKTSKAYQPLLSSKAKIAIIGGGVAGSTIALRFAELGLDTTLIEKGPSLVNGPPICHLHAGGNLYREICDEQCLTLLKQSIDTVKVYPQSVNIRPTVIALPKTDNGQPEDLLPRLEKLRAKYSELVAQDSRNKVLGEPENYFKFYSRTELDALLDLPLPKTAKNDSDWLVAFAQHVDLDSLKFPVLLVQEYGLSAFRFAAIASLAIEGLPSCHLQTNKQVIAIVQQKNSLGWQVSTQALPQHQQSPTIIHQHFDYVINACGFKSGEIDDMVSAKRKRMVEFKAAYVAHWPQCQGLWPEIVFYGERGTPQGMAQLTPYPDGYFQLHGMTQDITLFDQGLVASSLESAQPQLAKRFIEKIDKKWPEQLVHNRTLGSIEHIAQFISAFSSAEVAAKPLFGAQQIPGEDADLRAADVSFYGQHYARAEIVKASSALAAGDAILKNLVDCGLIAALELGRYLTEHYFPVSQQCSEIEVTERAIMLAKQREYPIALAKNLLEHHHHHH,soluble
8,MSAQRIQKVDILRYDPANDAEPHMQRFEVPFDETMSVLDAIGYVKDHLDKDLSYRWSCRMAICGSCGIMVNGVPKLACKSFLRDYPEGVKIEPLANFPIEKDLIVDMTPFIERLEAIKPYIIGNDRKPEDGTNLQTPEQMARYKQFAGCINCGLCYAACPQFGLNPEFLGPAALTLAHRYNLDSRDNGKAERMKLINGDNGAWGCTFVGYCSEVCPKHVDPAAAVNQGKVESSLDFVIAMLNPDGSPKKVEA,not soluble
9,MGSDKIHHHHHHMKEDSSLTPQEVADLLKITKYTVYEMVKRGELPAYRIGRKIRIEQRDVDAYIKQGKKLKYKDIDTLEASPRTQAARQDYLSTSPGLVICGQDLLLDILGRHLENHSQGCRAFRHNIGSFAGLLQLYQGESDMAGVHLWDSDSESYNIPYVRRMVPGIPTLIIHLAMRQQGFYVARSNPLGIKGWADLTIPGLRFINREPGCGTRVLLDEHLYQMKLDRRKINGYEREETSHLAVASAVARGTADLALGNEKAALQVRGIEFIPLQKERYELVIRKEDLDKAEIRAVLDILNSAAFKSELEGLGDYCLEETGRIVAEI,not soluble
10,MEHLSQDEVIRLASTPCSAPALKRAFLFSCLTALRKSDIKKLTWEEIQPYGSDGVMYVTTRMQKTKDIVHNPISEEALELIGYSPDKRGKVFPDFKDSMTQAPLKNWLKDAGITKHISYHCSRHSFACLQLDAGTSIAVVQRYLGHKNVATTEVYAKISDAQKRASVGLEHHHHHH,not soluble
